Source: patent US20170362341A1

Legend:
[1] = target: CD-30 on Karpas 299 and L540 cells (UniProt P28908); assay: FACS-based cell binding on L540 cells, Alexa-488 goat anti-human IgG detection, MFI normalised to the averaged maximum (% binding)
[2] = target: CD-30 on Karpas 299 and L540 cells (UniProt P28908); assay: FACS-based cell binding on Karpas 299 cells, Alexa-488 goat anti-human IgG detection, MFI normalised to the averaged maximum (% binding)
[3] = target: CD-30 on Karpas 299 and L540 cells (UniProt P28908); assay: flow cytometry on L540 cells, one site-total binding fit
[4] = target: CD-30 on Karpas 299 and L540 cells (UniProt P28908); assay: flow cytometry on Karpas 299 cells, one site-total binding fit
HER2 on SKBR3 cells [5] = target: HER2 on SKBR3 cells (UniProt P04626); assay: flow cytometry on SKBR3 cells, one site specific binding fit; column head prints 'Cell Binding IC50, nM' (heads of c3 and c4 seem swapped)
HER2 on SKBR3 cells [6] = target: HER2 on SKBR3 cells (UniProt P04626); assay: flow cytometry on SKBR3 cells

UniProt P28908, sequence (P28908 19-595 limits assumed): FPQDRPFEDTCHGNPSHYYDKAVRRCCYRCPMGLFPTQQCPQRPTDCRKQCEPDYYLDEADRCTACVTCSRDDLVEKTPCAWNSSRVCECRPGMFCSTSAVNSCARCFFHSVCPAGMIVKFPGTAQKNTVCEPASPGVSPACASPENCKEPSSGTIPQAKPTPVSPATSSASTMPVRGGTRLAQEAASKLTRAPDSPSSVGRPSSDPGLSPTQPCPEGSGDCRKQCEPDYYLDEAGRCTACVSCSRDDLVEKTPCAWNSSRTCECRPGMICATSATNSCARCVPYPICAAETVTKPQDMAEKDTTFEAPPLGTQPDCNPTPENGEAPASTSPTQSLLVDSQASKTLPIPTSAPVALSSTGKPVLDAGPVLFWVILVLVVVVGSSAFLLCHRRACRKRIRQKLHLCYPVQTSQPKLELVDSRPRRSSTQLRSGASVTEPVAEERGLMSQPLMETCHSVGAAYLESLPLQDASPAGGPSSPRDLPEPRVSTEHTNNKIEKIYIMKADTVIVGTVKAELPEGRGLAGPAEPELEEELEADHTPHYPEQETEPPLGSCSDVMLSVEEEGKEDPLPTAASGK

Substance | EC50 (read off the curve) [1] | EC50 (read off the curve) [2] | Kd [3] | Kd [4] | Kd (HER2 on SKBR3 cells [5]) | Kd (HER2 on SKBR3 cells [6])
Adcetris HC F404 unconjugated (antibody) | 1 nM |  |  |  |  | 
Adcetris HC K121 unconjugated (antibody) | 0.8 nM |  |  |  |  | 
Aglycosylated Brentuximab IgG HC-F404 conjugated to DBCO-MMAF 2 (antibody) | 0.7 nM | 0.3 nM | 0.81 nM | 0.46 nM |  | 
Aglycosylated Brentuximab IgG HC-K121 conjugated to DBCO-MMAF 2 (antibody) |  | 0.4 nM | 1.3 nM | 0.52 nM |  | 
Aglycosylated Brentuximab IgG LC-N152 conjugated to DBCO-MMAF 2 (antibody) | 0.6 nM | 0.4 nM | 1 nM | 0.5 nM |  | 
Trastuzumab scFv (VL_VH) with pN3F at position (-1), conjugated to DBCO-MMAF |  |  |  |  | 14 nM | 
Trastuzumab scFv-Fc (-1) pN3F conjugated to DBCO-MMAF (Fc fusion) |  |  |  |  |  | 6.8 nM
